Key:
[1] = target: CD123 (IL-3 receptor alpha chain, IL-3Ralpha) on cells (human) (UniProt P26951); assay: cell-based or functional assay
[2] = target: CD123 (human IL-3Ralpha), form in the assay not stated (human) (UniProt P26951); assay: method not stated

CSL360 (chimeric antibody: 7G3 variable regions on a human IgG1 constant region)
% CD107a positive NK cells, PBMC with AML sample RMH003 and CSL360 [1]: 39%
% lysis, 51Cr release ADCC, CTLEN cells, E:T 10:1 [1]: 10%
% lysis, 51Cr release ADCC, CTLEN cells, E:T 100:1 [1]: 51%
% lysis, 51Cr release ADCC, SL (AML) cells, E:T 10:1 [1]: 2.4%
% lysis, 51Cr release ADCC, SL (AML) cells, E:T 100:1 [1]: 15%
% lysis, calcein release ADCC, RBH013 (AML), E:T 10:1 [1]: 0%
% lysis, calcein release ADCC, RBH013 (AML), E:T 100:1 [1]: 0%
% lysis, calcein release ADCC, RMH003 (AML), E:T 10:1 [1]: 39.2%
% lysis, calcein release ADCC, RMH003 (AML), E:T 100:1 [1]: 82.6%
% lysis, calcein release ADCC, RMH008 (AML), E:T 10:1 [1]: 59.5%
% lysis, calcein release ADCC, RMH008 (AML), E:T 100:1 [1]: 100%
% lysis, calcein release ADCC, RMH009 (B-ALL), E:T 10:1 [1]: 0%
% lysis, calcein release ADCC, RMH009 (B-ALL), E:T 100:1 [1]: 0%
% lysis, calcein release ADCC, RMH009* (B-ALL, repeat with other PBMC), E:T 10:1 [1]: 0%
% lysis, calcein release ADCC, RMH009* (B-ALL, repeat with other PBMC), E:T 100:1 [1]: 0%
% lysis, calcein release ADCC, RMH010 (AML), E:T 10:1 [1]: 4%
% lysis, calcein release ADCC, RMH010 (AML), E:T 100:1 [1]: 0%
% of NK cells expressing CD107a, CSL360 at E:T 1:1, CTLEN-001 [1]: 6.7%
% of NK cells expressing CD107a, CSL360 at E:T 1:1, CTLEN-008 [1]: 24%
% of NK cells expressing CD107a, CSL360 at E:T 1:1, CTLEN-010 [1]: 5.7%
% of NK cells expressing CD107a, CSL360 at E:T 1:1, CTLEN-011-PBMC-1 [1]: 8.1%
% of NK cells expressing CD107a, CSL360 at E:T 1:1, CTLEN-011-PBMC-2 [1]: 10.5%
% of NK cells expressing CD107a, CSL360 at E:T 1:1, EL4hi-002 [1]: 2.9%
% of NK cells expressing CD107a, CSL360 at E:T 1:1, EL4hi-003 [1]: 15%
% of NK cells expressing CD107a, CSL360 at E:T 1:1, EL4hi-004 [1]: 16%
% of NK cells expressing CD107a, CSL360 at E:T 1:1, EL4hi-005 [1]: 21%
% of NK cells expressing CD107a, CSL360 at E:T 1:1, EL4hi-010 [1]: 34%
% of NK cells expressing CD107a, CSL360 at E:T 1:1, EL4hi-011-PBMC-1 [1]: 15.5%
% of NK cells expressing CD107a, CSL360 at E:T 1:1, EL4hi-011-PBMC-2 [1]: 23.5%
% of NK cells expressing CD107a, CSL360 at E:T 1:1, EL4hi/lo-001 [1]: 2.8%
% of NK cells expressing CD107a, CSL360 at E:T 1:1, RBH009^a (AML) [1]: 8.5%
% of NK cells expressing CD107a, CSL360 at E:T 1:1, RBH009^b (AML) [1]: 8%
% of NK cells expressing CD107a, CSL360 at E:T 1:1, RBH013^a (AML) [1]: 10%
% of NK cells expressing CD107a, CSL360 at E:T 1:1, RBH013^b (AML) [1]: 22%
% of NK cells expressing CD107a, CSL360 at E:T 1:1, RMH003^a (AML) [1]: 30%
% of NK cells expressing CD107a, CSL360 at E:T 1:1, RMH003^b (AML) [1]: 33%
% of NK cells expressing CD107a, CSL360 at E:T 1:1, RMH003^c (AML) [1]: 38%
% of NK cells expressing CD107a, CSL360 at E:T 1:1, RMH007 (B-ALL) [1]: 16.4%
% of NK cells expressing CD107a, CSL360 at E:T 1:1, RMH008^a (AML) [1]: 9%
% of NK cells expressing CD107a, CSL360 at E:T 1:1, RMH008^b (AML) [1]: 16%
% of NK cells expressing CD107a, CSL360 at E:T 1:1, RMH008^c (AML) [1]: 8.7%
% of NK cells expressing CD107a, CSL360 at E:T 1:1, RMH009^a (B-ALL) [1]: 3%
% of NK cells expressing CD107a, CSL360 at E:T 1:1, RMH009^b (B-ALL) [1]: 1.7%
% of NK cells expressing CD107a, CSL360 at E:T 1:1, RMH009^c (B-ALL) [1]: 7.4%
% of NK cells expressing CD107a, CSL360 at E:T 1:1, RMH010^a (AML) [1]: 14%
% of NK cells expressing CD107a, CSL360 at E:T 1:1, RMH010^b (AML) [1]: 25.5%
% of NK cells expressing CD107a, CSL360 at E:T 1:1, RMH011 (AML) [1]: 6.6%
% of NK cells expressing CD107a, CSL360 at E:T 1:1, TF-1 (GM-CSF) [1]: 0.7%
% of NK cells expressing CD107a, CSL360 at E:T 1:1, TF-1 (IL-3) [1]: 1.45%
IC50, IL-3-dependent TF-1 cell proliferation [1]: 5 nM
Kd [2]: 1.06 nM
